Molecular target: wild-type ezrin 1-586 (UniProt P15311 1-586)
Experiment: solid phase assay

binding result: binds
B1: ezrin 1-333 K63N, K64N, K253N, K254N, K262N, and K263N (domain or fragment, UniProt P15311 1-333, looked up)
chain: MPKPINVRVTTMDAELEFAIQPNTTGKQLFDQVVKTIGLREVWYFGLHYVDNKGFPTWLKLDNNVSAQEVRKENPLQFKFRAKFYPEDVAEELIQDITQKLFFLQVKEGILSDEIYCPPETAVLLGSYAVQAKFGDYNKEVHKSGYLSSERLIPQRVMDQHKLTRDQWEDRIQVWHAEHRGMLKDNAMLEYLKIAQDLEMYGINYFEIKNKKGTDLWLGVDALGLNIYEKDDKLTPKIGFPWSEIRNISFNDNNFVIKPIDNNAPDFVFYAPRLRINKRILQLCMGNHELYMRRRKPDTIEVQQMKAQAREEKHQKQLERQQLETEKKRRETV

Reference: paper PMC2174347 (The Journal of Cell Biology, 2000)
